Reference: paper PMC9101030, “Myo5b Transports Fibronectin-Containing Vesicles and Facilitates FN1 Secretion from Human Pleural Mesothelial Cells” (International Journal of Molecular Sciences, 2022)

Biological target: T1, Flag-Rab11b (full length) (human, UniProt Q15907 1-218)
T1 construct: human Rab11b, full length cDNA in a modified pFastbac HT; the nucleotide state is told by the assay; also called Rab11b-GTPγS; Rab11b-GDPβS; source: Sf9, baculovirus, purified (Ni-NTA); not shown: FLAG, N-terminal, kept
T1 sequence (looked up): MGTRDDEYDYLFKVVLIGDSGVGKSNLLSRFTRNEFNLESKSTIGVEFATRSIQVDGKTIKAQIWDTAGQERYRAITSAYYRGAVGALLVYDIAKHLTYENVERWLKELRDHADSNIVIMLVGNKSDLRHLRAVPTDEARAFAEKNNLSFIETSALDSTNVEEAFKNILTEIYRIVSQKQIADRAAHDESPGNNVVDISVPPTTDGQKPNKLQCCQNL
Assay: pull-down; GST fusion on Glutathione Sepharose 4B; Flag-Rab11b pre-treated with 5-fold excess GTPγS (30 min, 37 °C); 10 µM Rab11b, 2.5 µM Myo5b Tail, 20 µM GTPγS, 20 mM Tris-HCl pH 7.5, 150 mM NaCl, 1 mM MgCl2, 1 mM EGTA, 1 mM DTT, 0.05% Tween, 1% BSA, 4 °C, 1 h; anti-flag Western blot
Settings: both partners purified

- binding result: binds
B1: GST-Rab11FIP3 Rab binding domain (694-756 a.a.) (domain or fragment, human, UniProt O75154 694-756, looked up)
chain: QGAKSLFSTAFSESLAAEISSVSRDELMEAIQKQEEINFRLQDYIDRIIVAIMETNPSILEVK
notes: Cloned in pET-30a with GST at the N-terminus and 6xHis at the C-terminus; also called GST-FIP3 RBD; GST-FIP3-RBD; source: E. coli BL21 (DE3), purified (Ni-NTA); not shown: GST, N-terminal, kept
